From patent publication US20030235860A1, “Interactions between AR, ER, TR2, and TR4” (priority 1999, published 2003)
No end group written: not given here.

Assays:
[1] = biological target: T1, interaction between the GAL4-ER and VPI6-TR2 (Homo sapiens, UniProt P03372, G400V); assay: Mammalian two-hybrid assay GAL4-ER / VP16-TR2; format: cell-based; settings: PC-3 cells; presence of E2; co-transfection of blocker plasmid
T1 construct: GAL4-DBD fused with ER-LBD (GAL4-ER, aa 282 to 595); expressed in transfected cells; host or cells: H1299, PC-3
T1 sequence (P03372 282-595 G400V): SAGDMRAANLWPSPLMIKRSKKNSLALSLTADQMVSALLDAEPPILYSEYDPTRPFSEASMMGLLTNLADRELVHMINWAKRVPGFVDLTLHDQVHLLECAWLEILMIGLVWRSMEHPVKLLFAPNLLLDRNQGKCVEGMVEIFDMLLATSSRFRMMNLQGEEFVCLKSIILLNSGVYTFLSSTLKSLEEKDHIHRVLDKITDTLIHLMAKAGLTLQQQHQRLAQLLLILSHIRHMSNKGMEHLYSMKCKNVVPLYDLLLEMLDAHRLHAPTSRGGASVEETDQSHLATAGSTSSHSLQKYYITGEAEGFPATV
T1 sequence (P13056 1-603 partner): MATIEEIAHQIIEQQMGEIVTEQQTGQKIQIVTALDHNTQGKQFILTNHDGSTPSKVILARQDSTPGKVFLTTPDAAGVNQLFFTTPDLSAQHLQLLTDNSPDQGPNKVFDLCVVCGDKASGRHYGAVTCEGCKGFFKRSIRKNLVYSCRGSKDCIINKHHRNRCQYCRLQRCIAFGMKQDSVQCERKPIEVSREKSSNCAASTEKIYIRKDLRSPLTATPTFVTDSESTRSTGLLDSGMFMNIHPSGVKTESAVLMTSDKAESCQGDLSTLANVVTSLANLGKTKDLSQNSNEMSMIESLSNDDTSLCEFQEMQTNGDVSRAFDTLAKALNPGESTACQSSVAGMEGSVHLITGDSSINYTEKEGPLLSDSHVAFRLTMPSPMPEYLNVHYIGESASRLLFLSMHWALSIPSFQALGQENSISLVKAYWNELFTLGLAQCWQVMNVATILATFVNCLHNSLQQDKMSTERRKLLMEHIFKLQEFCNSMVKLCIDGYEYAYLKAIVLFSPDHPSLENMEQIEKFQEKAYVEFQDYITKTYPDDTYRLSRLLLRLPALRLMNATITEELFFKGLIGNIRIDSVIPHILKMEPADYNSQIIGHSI
Experimental: Transfections were performed using the calcium-phosphate precipitation method described above. […] 3 μg of a VPI6-TR2 expression plasmid and 3 μg pG5-CAT reporter plasmid. CAT assays were performed as described above.
Cells were also transfected with a β-galactosidase expression plasmid, pCMV-β-gal, as an internal control for transfection efficiency.

TR2 = biological target: T2, TR2 (Homo sapiens, UniProt P13056); assay: TR2-mediated transactivation reporter assay; format: cell-based; settings: PC-3 cells; 1 μg expression plasmid
T2 sequence (P13056 1-603): T1 sequence (P13056 1-603 partner)
Experimental: Transfections and chloramphenicol acetyltransferase (CAT) assays were performed as described previously. Yeh, & Chang, Proc. Natl. Acad. Sci. 93, 5517-5521 (1996). Briefly, 4×10^5 cells were plated in 60-mm dishes and cultured for 24 h, and then the medium was changed to phenol red free DMEM with 5% charcoal-stripped FCS 2 h before transfection. The cells were co-transfected with TR2 and/or ER expression plasmids with 2 μg of TR2-TK-CAT reporter or 1 μg of ERE-CAT reporter gene plasmid, as indicated in the Figures, by using the calcium phosphate precipitation method. A β-gal actosidase expression plasmid, pCMV-β-gal, was transfected in all transfections as an internal control for normalizing transfection efficiency. The total amount of DNA was adjusted up to 10.5 μg with parent vectors, pSG5 or pCMV in each transcriptional activity assay. […] The cells were then harvested and whole cell extracts were used for CAT assay. The CAT activity was quantitated by Phosphorlmager (Molecular Dynamics). Data are presented as means±S.D. of at least three independent experiments.
The CAT reporter assay was used to study the potential consequence of the formation of heterodimers between the TR2 and ER. […] More specifically, H1299 cells were transiently cotransfected with 2 μg of DR4-TK-CAT reporter plasmid and 3 μg of TR2 expression plasmid together with increasing amounts of the ER expression vector. […] Cells were also transfected with internal control reporter plasmid, pCMV-β-gal, as an internal control for transfection efficiency. Luciferase activity was then analyzed following manufacturer's instructions (Promega). […] Similar results were obtained when the DR4-TK-CAT reporter with DR1-HBV-LUC were replaced, another TR2 response element (FIG. 7C).
This conclusion was further confirmed by using the chimera receptor, TR2-androgen receptor (AR) ARp-TR2, which was generated by swapping TR2 proximal box (P-box) with that found in the AR. […] Luciferase activity was then analyzed following manufacturer's instructions (Promega). […]

Molecule: ER-#6: interaction blocker, ER fragment aa 312-340, as HA-tagged peptide, expression plasmid or cleaved peptide (ADQMVSALLDAEPPILYSEYDPTRPFSEA; also: HA tag (position not given here); UniProt P03372 312-340, looked up, fragment)
- ER-TR2 interaction (GAL4-ER / VP16-TR2, pG5-CAT) [1]: suppressed

B1: TR2: human testicular orphan nuclear receptor 2, 603 amino acids (protein, UniProt P13056 1-603, looked up)
chain: T1 sequence (P13056 1-603 partner)
modifications: full-length
notes: human testicular orphan nuclear receptor 2, 603 amino acids
- DR1-HBV-LUC activity (TR2): induced
